Key:
[1] = molecular target: T1, CyPet–Myo1^IQ1–YPet FRET reporter protein (S. pombe); assay: other fluorescence titration; change of the CyPet-YPet FRET signal of the IQ-FRET protein (1 µM by the methods, 0.5 µM by the legend) with varying concentrations of Cam1 or Cam2; 140 mM KCl, 20 mM MOPS pH 7.0, with or without 2 mM MgCl2, 2 mM EGTA (absence of calcium)
T1 sequence (Q9Y7Z8 whole entry, looked up): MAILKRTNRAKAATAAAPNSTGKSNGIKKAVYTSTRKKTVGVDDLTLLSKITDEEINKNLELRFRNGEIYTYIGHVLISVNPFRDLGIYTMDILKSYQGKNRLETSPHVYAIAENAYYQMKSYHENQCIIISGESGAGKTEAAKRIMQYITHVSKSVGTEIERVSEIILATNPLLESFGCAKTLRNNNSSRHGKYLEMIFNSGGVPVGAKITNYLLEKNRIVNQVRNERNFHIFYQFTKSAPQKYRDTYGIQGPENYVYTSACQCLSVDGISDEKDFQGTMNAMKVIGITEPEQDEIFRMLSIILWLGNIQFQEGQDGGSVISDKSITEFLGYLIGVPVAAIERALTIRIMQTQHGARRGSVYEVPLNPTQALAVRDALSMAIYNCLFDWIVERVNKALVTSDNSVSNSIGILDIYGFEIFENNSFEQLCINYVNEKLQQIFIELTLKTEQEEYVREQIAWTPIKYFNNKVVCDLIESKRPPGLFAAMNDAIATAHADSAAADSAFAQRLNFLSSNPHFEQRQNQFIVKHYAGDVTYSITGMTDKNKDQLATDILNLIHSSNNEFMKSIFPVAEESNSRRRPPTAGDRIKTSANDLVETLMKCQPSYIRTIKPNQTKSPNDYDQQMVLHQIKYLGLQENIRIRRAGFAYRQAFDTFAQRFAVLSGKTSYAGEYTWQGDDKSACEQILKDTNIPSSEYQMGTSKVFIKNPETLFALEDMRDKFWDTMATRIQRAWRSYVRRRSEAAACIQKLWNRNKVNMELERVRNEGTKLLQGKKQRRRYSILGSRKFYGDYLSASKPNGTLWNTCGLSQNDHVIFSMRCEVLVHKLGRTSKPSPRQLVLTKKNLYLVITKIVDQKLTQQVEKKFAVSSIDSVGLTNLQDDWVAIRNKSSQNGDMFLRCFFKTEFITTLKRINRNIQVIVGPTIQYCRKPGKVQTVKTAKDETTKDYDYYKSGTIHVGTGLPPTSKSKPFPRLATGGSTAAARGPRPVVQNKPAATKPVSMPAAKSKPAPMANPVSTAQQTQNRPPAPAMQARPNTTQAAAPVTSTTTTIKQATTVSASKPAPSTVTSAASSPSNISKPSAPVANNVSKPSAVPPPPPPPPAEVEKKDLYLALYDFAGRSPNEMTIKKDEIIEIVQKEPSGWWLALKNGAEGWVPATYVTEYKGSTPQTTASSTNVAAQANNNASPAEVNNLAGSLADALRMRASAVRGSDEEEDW

[2] = molecular target: T2, CyPet–Myo1^IQ12–YPet FRET reporter protein (S. pombe); assay: as above
T2 sequence (Q9Y7Z8 whole entry, looked up): T1 sequence (Q9Y7Z8 whole entry, looked up)

## Cam1 (wild type, amino-terminally acetylated fission yeast calmodulin) (from UniProt P05933 1-150) (natural protein)
[1]
  Kd: < 100 nM
[2]
  KD of the first binding event: < 100 nM
  KD of the second binding event: 680 nM
